Target: TNFR1 on human umbilical vein endothelial cells (HUVEC) (human) (UniProt P19438)
Sequence of UniProt P19438 (P19438 30-455): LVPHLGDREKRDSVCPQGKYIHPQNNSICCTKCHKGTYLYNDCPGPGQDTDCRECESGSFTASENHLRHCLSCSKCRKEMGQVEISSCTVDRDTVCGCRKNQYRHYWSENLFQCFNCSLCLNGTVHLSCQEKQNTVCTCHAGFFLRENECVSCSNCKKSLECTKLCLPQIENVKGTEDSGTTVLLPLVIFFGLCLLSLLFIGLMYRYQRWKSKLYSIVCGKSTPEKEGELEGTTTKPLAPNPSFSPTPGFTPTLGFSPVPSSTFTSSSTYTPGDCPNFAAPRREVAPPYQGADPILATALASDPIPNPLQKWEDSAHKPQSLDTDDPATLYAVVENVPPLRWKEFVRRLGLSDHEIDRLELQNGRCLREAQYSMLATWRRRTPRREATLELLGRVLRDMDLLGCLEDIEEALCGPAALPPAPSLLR

Sequence of DOM1h-131-206 (VH): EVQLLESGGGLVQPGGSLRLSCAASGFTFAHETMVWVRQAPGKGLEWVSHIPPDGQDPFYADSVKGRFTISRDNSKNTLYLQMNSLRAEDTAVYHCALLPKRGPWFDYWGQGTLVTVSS

- IC50 (read off the curve) [b]: 500 pM
Substance: DOM1h-131-206

— US20140112929A1
